# In the supplement of paper PMC10567573:
# B1: ZNF193 (parent)
# chain: QCIECGKSFNRHCNLIRHQKIHTV
# Variants of: B1
# Assay: protein stability index of a GFP-peptide fusion (GPS, HEK-293T) (PSI 1-6); higher = more stable
# Details: c terminus: a fixed tail appended
# 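Further: lentivirally expressed fusions sorted by FACS into six bins by GFP to DsRed ratio, PSI derived from sequencing read proportions per bin multiplied by bin number.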
row,Variant,protein stability index
1,QCIECGKSFNRHCNLIGHQKIHTV [R17G],3.07
2,QCIECGKSFNRHCNLIFHQKIHTV [R17F],2.22
3,QCIECGKSFNRHCNLIPHQKIHTV [R17P],2.15
4,QCIECGKSFNRHCNLIEHQKIHTV [R17E],4.18
5,QCIECGKSFNRHCNLIRHQVIHTV [K20V],2.66
6,QCIECGKSFNRHCNLIRHQMIHTV [K20M],3.13
7,QCIECGKSFNRHCNLIRHQCIHTV [K20C],3.47
8,QCIECGKSFNRHCNLIRHQKIDTV [H22D],2.08
9,QCIECGKSFNRHCNLIRHQKISTV [H22S],2.45
10,QCIECGPSFNRHCNLIRHQKIHTV [K7P],2.59
11,QCIECGFSFNRHCNLIRHQKIHTV [K7F],2.37
12,QCIECGLSFNRHCNLIRHQKIHTV [K7L],2.86
13,QCIECGWSFNRHCNLIRHQKIHTV [K7W],2.18
14,QCIECGHSFNRHCNLIRHQKIHTV [K7H],2.35
15,QCIECGASFNRHCNLIRHQKIHTV [K7A],3.74
16,QCIECGGSFNRHCNLIRHQKIHTV [K7G],2.13
17,QCIECGKSFNRHCNLIRHQKIHTL [V24L],3.43
18,QCIEWGKSFNRHCNLIRHQKIHTV [C5W],2.07
19,QCIERGKSFNRHCNLIRHQKIHTV [C5R],2.22
20,QCIEIGKSFNRHCNLIRHQKIHTV [C5I],1.53
21,QCIEPGKSFNRHCNLIRHQKIHTV [C5P],2.49
22,QCIEVGKSFNRHCNLIRHQKIHTV [C5V],2.13
23,QCIEQGKSFNRHCNLIRHQKIHTV [C5Q],2.6
24,QCIPCGKSFNRHCNLIRHQKIHTV [E4P],1.39

row,Variant,protein stability index
1,QCIGCGKSFNRHCNLIRHQKIHTV [E4G],2.04
2,QCIMCGKSFNRHCNLIRHQKIHTV [E4M],3.1
3,QCIECIKSFNRHCNLIRHQKIHTV [G6I],1.42
4,QCIECAKSFNRHCNLIRHQKIHTV [G6A],2.38
5,QCIECKKSFNRHCNLIRHQKIHTV [G6K],3.54
6,QCIECDKSFNRHCNLIRHQKIHTV [G6D],2.62
7,QCIECWKSFNRHCNLIRHQKIHTV [G6W],1.5
8,QCIECGKSFNRHPNLIRHQKIHTV [C13P],2.99
9,QCIECGKSFNRHSNLIRHQKIHTV [C13S],3.95
10,QCIECGKSFNRHQNLIRHQKIHTV [C13Q],3.32
11,QCIECGKSFNRHHNLIRHQKIHTV [C13H],3.56
12,QCIECGKSFNRHNNLIRHQKIHTV [C13N],3.2
13,QCIECGKSFNRHVNLIRHQKIHTV [C13V],3.88
14,QCIECGKSFNRHCNLARHQKIHTV [I16A],2.74
15,QCIECGKSFNRHCNLRRHQKIHTV [I16R],3.51
16,QCIECGKSFNRHCNLQRHQKIHTV [I16Q],3.64
17,QIIECGKSFNRHCNLIRHQKIHTV [C2I],2.06
18,QFIECGKSFNRHCNLIRHQKIHTV [C2F],1.07
19,QAIECGKSFNRHCNLIRHQKIHTV [C2A],1.66
20,QVIECGKSFNRHCNLIRHQKIHTV [C2V],2.73
21,QCIECGKPFNRHCNLIRHQKIHTV [S8P],3.13
22,QCIECGKLFNRHCNLIRHQKIHTV [S8L],4.35
23,QCIECGKWFNRHCNLIRHQKIHTV [S8W],3.17
24,QCIECGKGFNRHCNLIRHQKIHTV [S8G],2.49

row,Variant,protein stability index
1,QCIECGKNFNRHCNLIRHQKIHTV [S8N],3.47
2,NCIECGKSFNRHCNLIRHQKIHTV [Q1N],2.56
3,KCIECGKSFNRHCNLIRHQKIHTV [Q1K],3.6
4,CCIECGKSFNRHCNLIRHQKIHTV [Q1C],3.26
5,QCIECGKSFNNHCNLIRHQKIHTV [R11N],4.26
6,QCIECGKSFNYHCNLIRHQKIHTV [R11Y],3.04
7,QCIECGKSFNHHCNLIRHQKIHTV [R11H],3.5
8,QCIECGKSFNQHCNLIRHQKIHTV [R11Q],2.96
9,QCIECGKSFNPHCNLIRHQKIHTV [R11P],3.21
10,QCIECGKSFNDHCNLIRHQKIHTV [R11D],4.37
11,QCIECGKSFNRHCFLIRHQKIHTV [N14F],2.32
12,QCIECGKSFNRHCKLIRHQKIHTV [N14K],3.38
13,QCIECGKSDNRHCNLIRHQKIHTV [F9D],3.09
14,QCIECGKSNNRHCNLIRHQKIHTV [F9N],2.56
15,QCIECGKSINRHCNLIRHQKIHTV [F9I],2.13
16,QCTECGKSFNRHCNLIRHQKIHTV [I3T],4.2
17,QCYECGKSFNRHCNLIRHQKIHTV [I3Y],3.38
18,QCIECGKSFNRYCNLIRHQKIHTV [H12Y],3.27
19,QCIECGKSFNRWCNLIRHQKIHTV [H12W],3.19
20,QCIECGKSFNRICNLIRHQKIHTV [H12I],3.43
21,QCIECGKSFNRMCNLIRHQKIHTV [H12M],3.65
22,QCIECGKSFNRTCNLIRHQKIHTV [H12T],3.71
23,QCIECGKSFNRHCNLIRHQKIHMV [T23M],3.33
24,QCIECGKSFNRHCNLIRHQKIHEV [T23E],4.38

row,Variant,protein stability index
1,QCIECGKSFNRHCNLIRHQKIHDV [T23D],3.13
2,QCIECGKSFNRHCNLIRHQKIHNV [T23N],4.08
3,QCIECGKSFNRHCNLIRHQKIHVV [T23V],3.26
4,QCIECGKSFNRHCNLIRHMKIHTV [Q19M],3.48
5,QCIECGKSFNRHCNLIRHEKIHTV [Q19E],3.73
6,QCIECGKSFNRHCNLIRHIKIHTV [Q19I],2.8
7,QCIECGKSFNRHCNLIRHDKIHTV [Q19D],2.03
8,QCIECGKSFNRHCNLIRYQKIHTV [H18Y],1.41
9,QCIECGKSFNRHCNLIRCQKIHTV [H18C],2.55
10,QCIECGKSFNRHCNLIRPQKIHTV [H18P],2.05
11,QCIECGKSFNRHCNLIRMQKIHTV [H18M],1.65
12,QCIECGKSFNRHCNLIRNQKIHTV [H18N],2.31
13,QCIECGKSFNRHCNLIRKQKIHTV [H18K],2.38
14,QCIECGKSFNRHCNLIREQKIHTV [H18E],2.33
15,QCIECGKSFNRHCNSIRHQKIHTV [L15S],2.62
16,QCIECGKSFNRHCNAIRHQKIHTV [L15A],2.82
17,QCIECGKSFNRHCNEIRHQKIHTV [L15E],3.06
18,QCIECGKSFGRHCNLIRHQKIHTV [N10G],3.29
19,QCIECGKSFERHCNLIRHQKIHTV [N10E],3.92
20,QCIECGKSFSRHCNLIRHQKIHTV [N10S],3.48
21,QCIECGKSFIRHCNLIRHQKIHTV [N10I],3.28
22,QCIECGKSFLRHCNLIRHQKIHTV [N10L],2.48
